According to doi:10.1101/2024.08.12.607649 (bioRxiv, 2024):

Molecular target: T1, Msn5_(βC-helix-tail) (residues 1179-1224 removed) (S. cerevisiae, UniProt P52918 1-1178)
T1 sequence (looked up): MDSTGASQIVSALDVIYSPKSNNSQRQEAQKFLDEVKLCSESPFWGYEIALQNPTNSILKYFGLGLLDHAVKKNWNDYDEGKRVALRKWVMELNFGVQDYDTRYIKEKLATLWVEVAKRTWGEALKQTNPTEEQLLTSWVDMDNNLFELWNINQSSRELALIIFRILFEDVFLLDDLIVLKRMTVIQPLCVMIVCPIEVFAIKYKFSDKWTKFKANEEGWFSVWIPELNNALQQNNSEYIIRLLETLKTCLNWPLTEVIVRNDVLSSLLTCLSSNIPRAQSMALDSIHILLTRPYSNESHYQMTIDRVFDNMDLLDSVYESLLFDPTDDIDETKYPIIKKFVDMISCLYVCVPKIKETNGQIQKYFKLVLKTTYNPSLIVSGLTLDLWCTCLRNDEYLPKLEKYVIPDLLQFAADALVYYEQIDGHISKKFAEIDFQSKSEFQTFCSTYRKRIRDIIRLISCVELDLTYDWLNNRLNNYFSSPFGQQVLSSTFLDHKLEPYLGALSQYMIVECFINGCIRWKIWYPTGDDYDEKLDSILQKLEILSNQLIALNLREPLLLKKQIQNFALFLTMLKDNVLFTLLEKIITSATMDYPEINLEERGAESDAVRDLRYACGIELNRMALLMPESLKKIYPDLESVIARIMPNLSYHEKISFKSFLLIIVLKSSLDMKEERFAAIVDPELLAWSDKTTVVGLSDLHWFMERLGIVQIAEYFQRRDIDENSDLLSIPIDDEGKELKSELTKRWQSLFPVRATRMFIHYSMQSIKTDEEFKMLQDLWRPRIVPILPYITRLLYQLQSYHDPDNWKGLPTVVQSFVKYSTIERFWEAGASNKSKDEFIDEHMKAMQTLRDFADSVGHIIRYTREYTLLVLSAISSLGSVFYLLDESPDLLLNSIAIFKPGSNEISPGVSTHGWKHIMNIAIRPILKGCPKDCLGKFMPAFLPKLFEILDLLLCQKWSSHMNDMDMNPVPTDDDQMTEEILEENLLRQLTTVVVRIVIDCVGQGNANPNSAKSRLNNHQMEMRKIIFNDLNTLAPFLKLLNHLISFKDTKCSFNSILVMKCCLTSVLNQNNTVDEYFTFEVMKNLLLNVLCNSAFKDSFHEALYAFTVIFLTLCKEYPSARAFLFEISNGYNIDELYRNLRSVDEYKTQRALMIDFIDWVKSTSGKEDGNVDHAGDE
Experiment: pull-down

- binding result: binds
B1: GST-pPho4_(1-200) (domain or fragment, S. cerevisiae, UniProt P07270 1-200, looked up)
chain: MGRTTSEGIHGFVDDLEPKSSILDKVGDFITVNTKRHDGREDFNEQNDELNSQENHNSSENGNENENEQDSLALDDLDRAFELVEGMDMDWMMPSHAHHSPATTATIKPRLLYSPLIHTQSAVPVTISPNLVATATSTTSANKVTKNKSNSSPYLNKRRGKPGPDSATSLFELPDSVIPTPKPKPKPKQYPKVILPSNST
modifications: phosphoserine at 100, 114, 128, 152 (in vitro phosphorylation by Pho80-Pho85)
